This assay addresses T1, human VISTA (human, UniProt Q9H7M9 33-194, limits assumed).
T1 construct: The ELISA text says only recombinant VISTA; also called recombinant VISTA
Nature of the assay: method not stated (Table 1, column Kd, M).

For 22 molecules, Kd results are on record in US20210017281A1 (IMMUNEXT, published 2021).

B1: INX909 | VSTB67 (antibody, V domains shown)
VH: QVQLVQSGAEVKKPGASVKVSCKASDYIFSSYWIQWVRQAPGQGLEWMGEIFPGSGGTNYNEKFKGRVTMTRDTSTSTVYMELSSLRSEDTAVYYCARAIYYDYDMYYFDSWGQGTTVTVSS
VL: DIQMTQSPSSLSASVGDRVTITCRASQDISSYLNWYQQKPGKVPKLLIYYTSRLHSGVPSRFSGSGSGTDFTLTISSLQPEDVATYYCQHVNTLPWTFGQGTKLEIKR
By Kd is commonly meant the concentration at which binding is half-saturated. A higher Kd goes with weaker binding. Regarding B1, the Kd came to 0.0629 nM.

B2: INX911 | VSTB76 (antibody, V domains shown)
VH: QVQLVQSGAEVKKPGASVKVSCKASGYTFTDYWINWVRQAPGQGLEWMGNIYPSHSYTNYNQEFKDRVTMTRDTSTSTVYMELSSLRSEDTAVYYCARGGYRYPYYAMDYWGQGTTVTVSS
VL: AIQLTQSPSSLSASVGDRVTITCGASENIYGALNWYQQKPGKAPKLLIYGATNLADGVPSRFSGSGSGTDFTLTISSLQPEDFATYYCQNVLSTPYTFGQGTKLEIKR
B2 had a Kd of 1.31 nM.

B3: INX904 | VSTB103 (antibody, V domains shown)
VH: EVQLVQSGAEVKKPGESLKISCKGSGYSFTSYWIGWVRQMPGKGLEWMGIIYPGDSDTRYSPSFQGQVTISADKSISTAYLQWSSLKASDTAMYYCARDDALYGGYYLDYWGQGTLVTVSS
VL: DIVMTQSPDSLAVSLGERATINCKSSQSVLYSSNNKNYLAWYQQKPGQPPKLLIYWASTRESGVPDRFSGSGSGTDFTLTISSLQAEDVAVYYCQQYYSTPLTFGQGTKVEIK
notes: INX name = the VSTB variable regions with human IgG2 constant regions
B3 yielded a Kd of 0.636 nM.

B4: VSTB49 (antibody, V domains shown)
VH: QVQLVQSGAEVKKPGASVKVSCKASGYTFPSHTIHWVRQAPGQRLEWMGSIYPFIDSTIYNQKFKDRVTITRDTSASTAYMELSSLRSEDTAVYYCARGIRGYTMDYWGQGTLVTVSS
VL: DVVMTQSPLSLPVTLGQPASISCRASESVDNYGLSFMNWFQQRPGQSPRRLIYGASNQGSGVPDRFSGSGSGTDFTLKISRVEAEDVGVYYCQQSKEVPYTFGQGTKLEIKR
Consider B4, for which the affinity, expressed as Kd, was 0.507 nM. This Kd and that of the molecule before are within 1.5-fold of each other.

B5: VSTB100 (antibody, V domains shown)
VH: EVQLVQSGAEVKKPGESLKISCKGSGYSFTSYWIGWVRQMPGKGLEWMGIIYPGDSDTRYSPSFQGQVTISADKSISTAYLQWSSLKASDTAMYYCARDVSSFYGYSPMFDYWGQGTLVTVSS
VL: EIVLTQSPATLSLSPGERATLSCRASQSVSSYLAWYQQKPGQAPRLLIYDASNRATGIPARFSGSGSGTDFTLTISSLEPEDFAVYYCQQRSNWPLTFGQGTKVEIKR
Turning to B5, the affinity, expressed as Kd, was 1.48 nM.

B6: VSTB104 (antibody, V domains shown)
VH: EVQLVQSGAEVKKPGESLKISCKGSGYSFTSYWIGWVRQMPGKGLEWMGIIYPGDSDTRYSPSFQGQVTISADKSISTAYLQWSSLKASDTAMYYCARDANSFYSAASIFDYWGQGTLVTVSS
VL: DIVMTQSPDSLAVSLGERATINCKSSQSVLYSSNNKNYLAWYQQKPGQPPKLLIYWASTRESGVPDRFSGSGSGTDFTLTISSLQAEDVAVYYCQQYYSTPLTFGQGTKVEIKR
As for B6, the Kd worked out at 0.675 nM.

B7: INX903 | VSTB95 (antibody, V domains shown)
VH: EVQLVESGGGLVQPGGSLRLSCAASGFTFRNYGMSWVRQAPGKGLEWVASIISGGSYTYYPDSVKGRFTISRDNAKNSLYLQMNSLRAEDTAVYYCARIYDHDGDYYAMDYWGQGTTVTVSS
VL: DIVMTQSPLSLPVTPGEPASISCRSSQSIVHSNGNTYLEWYLQKPGQSPQLLIYKVSNRFSGVPDRFSGSGSGTDFTLKISRVEAEDVGVYYCFQGSHVPWTFGQGTKLEIK
notes: INX903 = VSTB95 variable regions with wild-type human IgG2 constant regions
B7 returned a dissociation constant (Kd) of 0.126 nM.

B8: INX905 | VSTB53 (antibody, V domains shown)
VH: QVQLVQSGAEVKKPGASVKVSCKASGYTFTHYTIHWVRQAPGQGLEWMGYIIPSSGYSEYNQKFKDRVTMTRDTSTSTVYMELSSLRSEDTAVYYCARGAYDDYYDYYAMDYWGQGTLVTVSS
VL: DIVMTQSPLSLPVTPGEPASISCRSSQTIVHSNGNTYLEWYLQKPGQSPQLLIYKVSNRFSGVPDRFSGSGSGTDFTLKISRVEAEDVGVYYCFQASHVPWTFGQGTKLEIK
notes: as for B3
In turn, B8 returned a Kd of 0.0264 nM.

B9: INX913 | VSTB85 (antibody, V domains shown)
VH: QVQLVQSGAEVKKPGASVKVSCKASGYTFTDYAMHWVRQAPGQGLEWMGVIDTYYGNTNYNQKFKGRVTMTRDTSISTAYMELSRLRSDDTAVYYCARGGGDALDYWGQGTTVTVSS
VL: DIQMTQSPSSLSASVGDRVTITCKASQSVSNDVVWYQQKPGKAPKLLIYYASNRYIGVPSRFSGSGSGTDFTFTISSLQPEDIATYYCQQGYTSLRTFGQGTKLEIKR
B9 came in with a Kd of 0.0378 nM. This Kd and that of the molecule before are within 1.5-fold of each other.

B10: INX910 | VSTB73 (antibody, V domains shown)
VH: QVQLVQSGAEVKKPGASVKVSCKASGYTFTDYVISWVRQAPGQGLEWMGEIYPGSGNTYYYEKFKGRVTMTRDTSTSTVYMELSSLRSEDTAVYYCARVLVSVMDYWGQGTLVTVSS
VL: EIVLTQSPDFQSVTPKEKVTITCSASSSINYITWYQQKPDQSPKLLIKDTSKLASGVPSRFSGSGSGTDFTLTINSLEAEDAATYYCHQRSSYPWTFGQGTRLEIKR
B10: the Kd was found to be 2.26 nM. This Kd is about 60-fold higher than that of the molecule before.

B11: INX912 | VSTB84 (antibody, V domains shown)
VH: QVQLVQSGAEVKKPGASVKVSCKASGYTFTSYWMHWVRQAPGQGLEWMGYINPSTGYPGYNQKFKDRVTMTRDTSTSTVYMELSSLRSEDTAVYYCARSYYDYDGGAWFAYWGQGTTVTVSS
VL: DIVMTQTPLSLSVTPGQPASISCRASESVEYYGTSLMQWYLQKPGQPPQLLIYAASNVESGVPDRFSGSGSGTDFTLKISRVEAEDVGVYYCQQSRKVPSTFGQGTKLEIKR
For the molecule B11, binding was characterised by a dissociation constant (Kd) of 2.03 nM.

B12: INX919 | VSTB115 (antibody, V domains shown)
VH: QVQLVQSGAEVKKPGSSVKVSCKASGGTFSSYAISWVRQAPGQGLEWMGGIIPIFGTANYAQKFQGRVTITADESTSTAYMELSSLRSEDTAVYYCARSSYGWSYEFDYWGQGTLVTVSS
VL: DIQMTQSPSSLSASVGDRVTITCRASQSIRTYLNWYQQKPGKAPKLLIYAASSLQSGVPSRFSGSGSGTDFTLTISSLQPEDFATYYCQQAYSNPITFGQGTKVEIKR
B12 yielded a Kd of 0.145 nM.

B13: VSTB114 (antibody, V domains shown)
VH: QVQLVQSGAEVKKPGSSVKVSCKASGGTFSSYAISWVRQAPGQGLEWMGGIIPIFGTANYAQKFQGRVTITADESTSTAYMELSSLRSEDTAVYYCARHSIGWVAELDYWGQGTLVTVSS
VL: DIQMTQSPSSLSASVGDRVTITCRASQSIATSLNWYQQKPGKAPKLLIYYASSLQSGVPSRFSGSGSGTDFTLTISSLQPEDFATYYCQQGAYYPLTFGQGTKVEIKR
B13 registered a Kd of 0.152 nM.

B14: VSTB109 (antibody, V domains shown)
VH: QVQLVQSGAEVKKPGSSVKVSCKASGGTFSSYAISWVRQAPGQGLEWMGGIIPIFGTANYAQKFQGRVTITADESTSTAYMELSSLRSEDTAVYYCARSSYGWSYEFDYWGQGTLVTVSS
VL: DIQMTQSPSSLSASVGDRVTITCRASQSIATYLNWYQQKPGKAPKLLIYAASSLQSGVPSRFSGSGSGTDFTLTISSLQPEDFATYYCQQNHNRPITFGQGTKVEIKR
B14 displayed a Kd of 0.102 nM.

B15: INX917 | VSTB110 (antibody, V domains shown)
VH: QVQLVQSGAEVKKPGSSVKVSCKASGGTFSSYAISWVRQAPGQGLEWMGGIIPIFGTANYAQKFQGRVTITADESTSTAYMELSSLRSEDTAVYYCARHSIGWVAELDYWGQGTLVTVSS
VL: DIQMTQSPSSLSASVGDRVTITCRASQSINTDLNWYQQKPGKAPKLLIYAASSLQSGVPSRFSGSGSGTDFTLTISSLQPEDFATYYCQQGASDPITFGQGTKVEIKR
For the molecule B15, the Kd amounted to 0.202 nM.

B16: VSTB105 (antibody, V domains shown)
VH: QVQLVQSGAEVKKPGSSVKVSCKASGGTFSSYAISWVRQAPGQGLEWMGGIIPIFGTANYAQKFQGRVTITADESTSTAYMELSSLRSEDTAVYYCARSSYGWSYEFDYWGQGTLVTVSS
VL: DIQMTQSPSSLSASVGDRVTITCRASQSIATNLNWYQQKPGKAPKLLIYAASSLQSGVPSRFSGSGSGTDFTLTISSLQPEDFATYYCQQNDDRPITFGQGTKVEIKR
In turn, B16 yielded a Kd of 0.115 nM.

B17: INX918 | VSTB113 (antibody, V domains shown)
VH: QVQLVQSGAEVKKPGSSVKVSCKASGGTFSSYAISWVRQAPGQGLEWMGGIIPIFGTANYAQKFQGRVTITADESTSTAYMELSSLRSEDTAVYYCARHSIGWVAELDYWGQGTLVTVSS
VL: DIQMTQSPSSLSASVGDRVTITCRASQSIATDLNWYQQKPGKAPKLLIYAASSLQSGVPSRFSGSGSGTDFTLTISSLQPEDFATYYCQQAHWYPLTFGQGTKVEIKR
On to B17, for which binding was put at a Kd of 0.0433 nM.

B18: VSTB116 (antibody, V domains shown)
VH: QVQLVQSGAEVKKPGSSVKVSCKASGGTFSSYAISWVRQAPGQGLEWMGGIIPIFGTANYAQKFQGRVTITADESTSTAYMELSSLRSEDTAVYYCARSSYGWSYEFDYWGQGTLVTVSS
VL: DIQMTQSPSSLSASVGDRVTITCRASQSINTNLNWYQQKPGKAPKLLIYAASSLQSGVPSRFSGSGSGTDFTLTISSLQPEDFATYYCQQARDTPITFGQGTKVEIKR
As to B18, binding was put at a Kd of 0.213 nM.

B19: INX916 | VSTB107 (antibody, V domains shown)
VH: QVQLVQSGAEVKKPGSSVKVSCKASGGTFSSYAISWVRQAPGQGLEWMGGIIPIFGTANYAQKFQGRVTITADESTSTAYMELSSLRSEDTAVYYCARSSYGWSYEFDYWGQGTLVTVSS
VL: DIQMTQSPSSLSASVGDRVTITCRASQSINNDLNWYQQKPGKAPKLLIYAASSLQSGVPSRFSGSGSGTDFTLTISSLQPEDFATYYCQQNRATPITFGQGTKVEIKR
Regarding B19, the Kd stood at 0.089 nM.

B20: VSTB111 (antibody, V domains shown)
VH: QVQLVQSGAEVKKPGSSVKVSCKASGGTFSSYAISWVRQAPGQGLEWMGGIIPIFGTANYAQKFQGRVTITADESTSTAYMELSSLRSEDTAVYYCARSSYGWSYEFDYWGQGTLVTVSS
VL: DIQMTQSPSSLSASVGDRVTITCRASQSINTDLNWYQQKPGKAPKLLIYAASSLQSGVPSRFSGSGSGTDFTLTISSLQPEDFATYYCQQNRGSPITFGQGTKVEIKR
For B20, the affinity, expressed as Kd, was 0.171 nM.

B21: INX915 | VSTB106 (antibody, V domains shown)
VH: QVQLVQSGAEVKKPGSSVKVSCKASGGTFSSYAISWVRQAPGQGLEWMGGIIPIFGTANYAQKFQGRVTITADESTSTAYMELSSLRSEDTAVYYCARSSYGWSYEFDYWGQGTLVTVSS
VL: DIQMTQSPSSLSASVGDRVTITCRASQSIRTDLNWYQQKPGKAPKLLIYSASSLQSGVPSRFSGSGSGTDFTLTISSLQPEDFATYYCQQNERTPITFGQGTKVEIKR
Turning to B21, the Kd stood at 0.167 nM.

B22: VSTB108 (antibody, V domains shown)
VH: QVQLVQSGAEVKKPGSSVKVSCKASGGTFSSYAISWVRQAPGQGLEWMGGIIPIFGTANYAQKFQGRVTITADESTSTAYMELSSLRSEDTAVYYCARNTFGWSGELDYWGQGTLVTVSS
VL: DIQMTQSPSSLSASVGDRVTITCRASQSISNRLNWYQQKPGKAPKLLIYSASSLQSGVPSRFSGSGSGTDFTLTISSLQPEDFATYYCQQNHDNPITFGQGTKVEIKR
Molecule B22 displayed a Kd of 0.494 nM. Compared with the last molecule, the Kd is about 3-fold higher.
